Columns and labels:
[1] = target: TSH receptor (detergent solubilised TSH receptor preparation) (UniProt P16473); experiment: 125I-TSH, TSHR coated tubes; 20 µg/ml
[2] = target: TSH receptor (detergent solubilised TSH receptor preparation) (UniProt P16473); experiment: 125I-TSH, TSHR coated tubes; 200 µg/ml
[3] = target: TSH receptor (detergent solubilised TSH receptor preparation) (UniProt P16473); experiment: solubilised TSHR, PEG method; IgG 100 µg/ml; competitor 125I-16E5 Fab

TSH receptor (detergent solubilised TSH receptor preparation), sequence (P16473 21-764 limits assumed): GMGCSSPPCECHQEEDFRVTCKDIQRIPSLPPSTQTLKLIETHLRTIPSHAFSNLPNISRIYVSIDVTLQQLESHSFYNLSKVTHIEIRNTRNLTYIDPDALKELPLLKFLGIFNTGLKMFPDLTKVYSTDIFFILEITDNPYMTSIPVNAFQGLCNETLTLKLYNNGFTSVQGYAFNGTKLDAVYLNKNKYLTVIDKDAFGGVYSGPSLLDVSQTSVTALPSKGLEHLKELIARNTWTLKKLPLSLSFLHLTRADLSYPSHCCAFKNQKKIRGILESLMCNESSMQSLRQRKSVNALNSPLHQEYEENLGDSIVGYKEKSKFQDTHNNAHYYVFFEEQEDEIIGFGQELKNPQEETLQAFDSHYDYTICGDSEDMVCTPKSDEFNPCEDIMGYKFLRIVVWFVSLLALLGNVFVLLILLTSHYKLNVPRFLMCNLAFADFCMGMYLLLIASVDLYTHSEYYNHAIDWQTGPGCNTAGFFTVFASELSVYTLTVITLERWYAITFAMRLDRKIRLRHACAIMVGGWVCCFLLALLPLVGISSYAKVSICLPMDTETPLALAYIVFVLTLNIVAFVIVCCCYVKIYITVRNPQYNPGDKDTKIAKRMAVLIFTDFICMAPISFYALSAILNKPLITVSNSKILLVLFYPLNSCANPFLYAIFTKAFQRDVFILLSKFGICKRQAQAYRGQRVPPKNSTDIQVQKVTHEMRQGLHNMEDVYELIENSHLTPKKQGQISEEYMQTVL

% inhibition of TSH binding [1]: 6.1%
% inhibition of TSH binding [2]: 30.7%
% inhibition of 125I-16E5 Fab binding [3]: 8.8%
B1: 3B3 IgG (antibody, V domains shown)
VH: DVQLQQPGAELVKPGASVKLSCTTSGVNIKDTYMHWMKQRPEQGLEWIGRIDPANGNTKYDPKFRGKATITADTSSNTVYVQLRSLTSEDTAVYYCAYDGYWGQGTLVTVSA
VL: NIVMTQTPASLAVSLGQRATISCRASESVDSYGNNFMHWYQQKPGQSPRLLIYRASNLESGIPARFSGSGSRTDFTLTTNPVEADDVATYYCQQSHKDPLTFGAGTKLELK

From US20050118638A1
